± gives the uncertainty stated by the source.
Experiment: self-splicing fitness, log relative to wild type (ln ratio); higher = more splicing; Tetrahymena group I intron in knt gene, E. coli kanamycin selection, DiMSum; sequences stand for … in CUCUCU…GGAGGGAAAAGUUAUCAGGCAUGCACCUGGUAGCUAGUCUUUAAACCAAUAGAUUGCAUCGGUUUAAAAGGCAAGACCGUCAAAUUGCGGGAAAGGGGUCAACAGCCGUUCAGUACCAAGUCUCAGGGGAAACUUUGAGAUGGCCUUGCAAAGGGUAUGGUAAUAAGCUGACGGACAUGGUCCUAACCACGCAGCCAAGUCCUAAGUCAACAGAUCUUCUGUUGAUAUGGAUGCAGUUCACAGACUAAAUGUCGGUCGGGGAAGAUGUAUUCUUCUCAUAAGAUAUAGUCGGACCUCUCCUUAAUGGGAGCUAGCGGAUGAAGUGAUGCAACACUGGAGCCGCUGGGAACUAAUUUGUAUGCGAAAGUAUAUUGAUUAGUUUUGGAGUACUCGUGGUCG
Summary of the method: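 A randomised library covering all eight P1ex-region intron nucleotides was built with the intron in the knt kanamycin-resistance gene on pET-22b(+) and held in E. coli BL21(DE3). Cells were grown overnight at 37°C or 30°C on LB agar, with or without 25 μg/mL kanamycin, plus 100 μg/mL carbenicillin, 50 μM IPTG and 0.2% rhamnose, and pooled colonies were amplicon-sequenced on an Illumina HiSeq 2500. DiMSum fitness is the error-weighted combination of wild-type-normalised replicate fold changes, kanamycin versus none.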

| Sequence | self-splicing fitness (ln) (30 °C) | self-splicing fitness (ln) (37 °C) |
| --- | --- | --- |
| GGGAAGCAAUAUUACGCCUG | -0.0824 ± 0.11 | -0.324 ± 0.16 |
| GGGAAGCAAUAUUACGCGCU | -2.66 ± 0.28 | -0.954 ± 0.27 |
| GGGAAGCAAUAUUACGCUAA | -1.84 ± 0.2 | -0.363 ± 0.18 |
| GGGAAGCAAUAUUACGGAGU | -2.86 ± 0.12 | -2.05 ± 0.16 |
| GGGAAGCAAUAUUACGGCAU | -0.534 ± 0.16 | -0.344 ± 0.19 |
| GGGAAGCAAUAUUACGGGAA | -1.55 ± 0.45 | -1.14 ± 0.31 |
| GGGAAGCAAUAUUACGGGCU | -0.942 ± 0.12 | -0.846 ± 0.12 |
| GGGAAGCAAUAUUACGUAAA | -1.53 ± 0.21 | -1.56 ± 0.3 |
| GGGAAGCAAUAUUACGUAGC | -1.84 ± 0.18 | -1.37 ± 0.16 |
| GGGAAGCAAUAUUACGUGUU | -3.17 ± 0.21 | -1.9 ± 0.16 |
| GGGAAGCAAUAUUACGUUGU | -3.23 ± 0.22 | -2.31 ± 0.29 |
| GGGCAGCAAUAUUACGAAAA | -2.12 ± 0.38 | -2.31 ± 0.4 |
| GGGCAGCAAUAUUACGAACA | -0.951 ± 0.17 | -0.607 ± 0.18 |
| GGGCAGCAAUAUUACGAAUU | -0.318 ± 0.12 | -0.166 ± 0.17 |
| GGGCAGCAAUAUUACGACUA | -0.237 ± 0.094 | 0.125 ± 0.11 |
| GGGCAGCAAUAUUACGAGUA | -2.78 ± 0.42 | -2.53 ± 0.33 |
| GGGCAGCAAUAUUACGAUAU | -0.768 ± 0.099 | -0.877 ± 0.1 |
| GGGCAGCAAUAUUACGAUCG | -0.913 ± 0.098 | 0.377 ± 0.15 |
| GGGCAGCAAUAUUACGAUGU | -3.92 ± 0.3 | -0.5 ± 0.18 |
| GGGCAGCAAUAUUACGAUUA | -1.27 ± 0.14 | -1.63 ± 0.15 |
| GGGCAGCAAUAUUACGCAAA | -1.39 ± 0.099 | -0.884 ± 0.11 |
| GGGCAGCAAUAUUACGCAAG | -1.37 ± 0.24 | -0.431 ± 0.23 |
| GGGCAGCAAUAUUACGCACG | 0.202 ± 0.26 | -1.16 ± 0.19 |
| GGGCAGCAAUAUUACGCCCU | -2.78 ± 0.4 | – |
| GGGCAGCAAUAUUACGCCGA | -0.407 ± 0.078 | 0.467 ± 0.1 |

| Sequence | self-splicing fitness (ln) (30 °C) | self-splicing fitness (ln) (37 °C) |
| --- | --- | --- |
| GGGCAGCAAUAUUACGCUUU | -0.861 ± 0.057 | 0.0207 ± 0.075 |
| GGGCAGCAAUAUUACGGAAC | -1.22 ± 0.1 | -1.75 ± 0.15 |
| GGGCAGCAAUAUUACGGCAA | -0.705 ± 0.14 | -0.742 ± 0.17 |
| GGGCAGCAAUAUUACGGCGU | -1.16 ± 0.12 | -0.571 ± 0.12 |
| GGGCAGCAAUAUUACGGGUG | -3.07 ± 0.14 | -1.71 ± 0.19 |
| GGGCAGCAAUAUUACGGUCA | 0.308 ± 0.069 | 0.187 ± 0.083 |
| GGGCAGCAAUAUUACGUAAG | -0.581 ± 0.063 | 0.126 ± 0.096 |
| GGGCAGCAAUAUUACGUGCU | -3.46 ± 0.22 | -2.16 ± 0.25 |
| GGGGAGCAAUAUUACGAAAU | -3.38 ± 0.47 | -2.37 ± 0.39 |
| GGGGAGCAAUAUUACGAAGG | -2.62 ± 0.41 | -1.44 ± 0.39 |
| GGGGAGCAAUAUUACGACAA | -1.55 ± 0.42 | – |
| GGGGAGCAAUAUUACGACUC | -0.891 ± 0.25 | -0.405 ± 0.5 |
| GGGGAGCAAUAUUACGAUUA | -2.23 ± 0.23 | -1.58 ± 0.22 |
| GGGGAGCAAUAUUACGAUUU | -2.01 ± 0.16 | -0.868 ± 0.16 |
| GGGGAGCAAUAUUACGCCGA | -2.05 ± 0.5 | – |
| GGGGAGCAAUAUUACGCCGU | -2.64 ± 0.33 | -0.911 ± 0.34 |
| GGGGAGCAAUAUUACGCUUA | -1.04 ± 0.2 | -1.1 ± 0.27 |
| GGGGAGCAAUAUUACGGCAC | -1.39 ± 0.18 | -1.06 ± 0.3 |
| GGGGAGCAAUAUUACGGCGU | -1.31 ± 0.12 | -1.08 ± 0.15 |
| GGGGAGCAAUAUUACGGGAG | – | -1.53 ± 0.39 |
| GGGGAGCAAUAUUACGGGGU | -3.23 ± 0.3 | -2.13 ± 0.43 |
| GGGGAGCAAUAUUACGGUAG | -3.09 ± 0.27 | – |
| GGGGAGCAAUAUUACGUAGC | -2.01 ± 0.24 | -1.91 ± 0.36 |
| GGGGAGCAAUAUUACGUAUA | -1.69 ± 0.47 | -2.35 ± 0.39 |
| GGGGAGCAAUAUUACGUCGU | -2.77 ± 0.18 | -1.63 ± 0.21 |

| Sequence | self-splicing fitness (ln) (30 °C) | self-splicing fitness (ln) (37 °C) |
| --- | --- | --- |
| GGGGAGCAAUAUUACGUCUA | – | -2.6 ± 0.37 |
| GGGGAGCAAUAUUACGUGAG | -1.74 ± 0.26 | -1.36 ± 0.2 |
| GGGGAGCAAUAUUACGUGUG | -3.08 ± 0.27 | -1.7 ± 0.21 |
| GGGGAGCAAUAUUACGUUCA | -1.86 ± 0.25 | -1.35 ± 0.19 |
| GGGGAGCAAUAUUACGUUCC | – | -2 ± 0.3 |
| GGGGAGCAAUAUUACGUUGA | -3.11 ± 0.26 | -2.27 ± 0.24 |
| GGGGAGCAAUAUUACGUUUG | – | -2.43 ± 0.37 |
| GGGUAGCAAUAUUACGAAAU | -1.8 ± 0.11 | -0.914 ± 0.11 |
| GGGUAGCAAUAUUACGAAUA | -0.00785 ± 0.18 | -0.878 ± 0.18 |
| GGGUAGCAAUAUUACGACAC | -0.676 ± 0.33 | -0.155 ± 0.35 |
| GGGUAGCAAUAUUACGAGAU | -2.43 ± 0.19 | -1.59 ± 0.21 |
| GGGUAGCAAUAUUACGAGUA | – | 0.307 ± 0.22 |
| GGGUAGCAAUAUUACGAGUC | -3.63 ± 0.26 | -0.588 ± 0.17 |
| GGGUAGCAAUAUUACGAUGC | -0.816 ± 0.14 | -0.295 ± 0.19 |
| GGGUAGCAAUAUUACGCAGC | -2.55 ± 0.13 | -0.837 ± 0.12 |
| GGGUAGCAAUAUUACGCGCA | -0.0848 ± 0.13 | -0.0359 ± 0.14 |
| GGGUAGCAAUAUUACGCGGA | -2.64 ± 0.27 | -1.06 ± 0.13 |
| GGGUAGCAAUAUUACGCGUA | -0.49 ± 0.1 | -0.35 ± 0.11 |
| GGGUAGCAAUAUUACGCUAU | -2.86 ± 0.22 | -2.98 ± 0.31 |
| GGGUAGCAAUAUUACGCUUC | -2.91 ± 0.25 | – |
| GGGUAGCAAUAUUACGGACG | -1.74 ± 0.13 | -2.1 ± 0.2 |
| GGGUAGCAAUAUUACGGAUC | 0.0263 ± 0.12 | 0.637 ± 0.17 |
| GGGUAGCAAUAUUACGGAUG | -1.19 ± 0.17 | -2.61 ± 0.28 |
| GGGUAGCAAUAUUACGGAUU | -0.431 ± 0.19 | -0.333 ± 0.23 |
| GGGUAGCAAUAUUACGGCGC | -0.217 ± 0.12 | -1.14 ± 0.12 |

| Sequence | self-splicing fitness (ln) (30 °C) | self-splicing fitness (ln) (37 °C) |
| --- | --- | --- |
| GGGUAGCAAUAUUACGGCUG | -0.592 ± 0.11 | -1.05 ± 0.14 |
| GGGUAGCAAUAUUACGGGAA | -3.91 ± 0.42 | -1.86 ± 0.27 |
| GGGUAGCAAUAUUACGGGUA | -1.55 ± 0.28 | -1.1 ± 0.21 |
| GGGUAGCAAUAUUACGGGUU | -2.7 ± 0.15 | -1.27 ± 0.14 |
| GGGUAGCAAUAUUACGGUUA | -1.43 ± 0.14 | -0.344 ± 0.12 |
| GGGUAGCAAUAUUACGGUUG | -2.88 ± 0.14 | -0.949 ± 0.17 |
| GGGUAGCAAUAUUACGUAAG | -1.46 ± 0.14 | -0.429 ± 0.15 |
| GGGUAGCAAUAUUACGUAGC | -0.707 ± 0.15 | -0.648 ± 0.16 |
| GGGUAGCAAUAUUACGUCCA | -0.128 ± 0.093 | 0.376 ± 0.12 |
| GGGUAGCAAUAUUACGUCGU | -0.541 ± 0.086 | 0.73 ± 0.12 |
| GGGUAGCAAUAUUACGUCUG | -1.21 ± 0.12 | -1.15 ± 0.14 |
| GGGUAGCAAUAUUACGUGGU | -2.59 ± 0.13 | -2.04 ± 0.17 |
| GGGUAGCAAUAUUACGUGUU | -1.37 ± 0.097 | -0.992 ± 0.11 |
| GGGUAGCAAUAUUACGUUGG | -3.28 ± 0.28 | -2.14 ± 0.32 |
| GGUAAGCAAUAUUACGACAA | -0.393 ± 0.1 | -0.112 ± 0.16 |
| GGUAAGCAAUAUUACGACAU | -0.0747 ± 0.013 | -0.0479 ± 0.033 |
| GGUAAGCAAUAUUACGACCA | -1.47 ± 0.17 | -0.643 ± 0.21 |
| GGUAAGCAAUAUUACGAGCA | -0.801 ± 0.093 | -0.377 ± 0.12 |
| GGUAAGCAAUAUUACGAGGU | -3.61 ± 0.37 | -2.22 ± 0.28 |
| GGUAAGCAAUAUUACGAUUC | -0.184 ± 0.14 | 0.0485 ± 0.14 |
| GGUAAGCAAUAUUACGCCAU | -2.39 ± 0.36 | -1.86 ± 0.29 |
| GGUAAGCAAUAUUACGCGGU | -3.85 ± 0.31 | -0.403 ± 0.15 |
| GGUAAGCAAUAUUACGGAAA | -3.13 ± 0.35 | -0.547 ± 0.16 |

— the supplement of paper PMC7877785
